# Experimental data from patent US20040110688.
# T1: factor VIIIa, P00451
# T1 chain: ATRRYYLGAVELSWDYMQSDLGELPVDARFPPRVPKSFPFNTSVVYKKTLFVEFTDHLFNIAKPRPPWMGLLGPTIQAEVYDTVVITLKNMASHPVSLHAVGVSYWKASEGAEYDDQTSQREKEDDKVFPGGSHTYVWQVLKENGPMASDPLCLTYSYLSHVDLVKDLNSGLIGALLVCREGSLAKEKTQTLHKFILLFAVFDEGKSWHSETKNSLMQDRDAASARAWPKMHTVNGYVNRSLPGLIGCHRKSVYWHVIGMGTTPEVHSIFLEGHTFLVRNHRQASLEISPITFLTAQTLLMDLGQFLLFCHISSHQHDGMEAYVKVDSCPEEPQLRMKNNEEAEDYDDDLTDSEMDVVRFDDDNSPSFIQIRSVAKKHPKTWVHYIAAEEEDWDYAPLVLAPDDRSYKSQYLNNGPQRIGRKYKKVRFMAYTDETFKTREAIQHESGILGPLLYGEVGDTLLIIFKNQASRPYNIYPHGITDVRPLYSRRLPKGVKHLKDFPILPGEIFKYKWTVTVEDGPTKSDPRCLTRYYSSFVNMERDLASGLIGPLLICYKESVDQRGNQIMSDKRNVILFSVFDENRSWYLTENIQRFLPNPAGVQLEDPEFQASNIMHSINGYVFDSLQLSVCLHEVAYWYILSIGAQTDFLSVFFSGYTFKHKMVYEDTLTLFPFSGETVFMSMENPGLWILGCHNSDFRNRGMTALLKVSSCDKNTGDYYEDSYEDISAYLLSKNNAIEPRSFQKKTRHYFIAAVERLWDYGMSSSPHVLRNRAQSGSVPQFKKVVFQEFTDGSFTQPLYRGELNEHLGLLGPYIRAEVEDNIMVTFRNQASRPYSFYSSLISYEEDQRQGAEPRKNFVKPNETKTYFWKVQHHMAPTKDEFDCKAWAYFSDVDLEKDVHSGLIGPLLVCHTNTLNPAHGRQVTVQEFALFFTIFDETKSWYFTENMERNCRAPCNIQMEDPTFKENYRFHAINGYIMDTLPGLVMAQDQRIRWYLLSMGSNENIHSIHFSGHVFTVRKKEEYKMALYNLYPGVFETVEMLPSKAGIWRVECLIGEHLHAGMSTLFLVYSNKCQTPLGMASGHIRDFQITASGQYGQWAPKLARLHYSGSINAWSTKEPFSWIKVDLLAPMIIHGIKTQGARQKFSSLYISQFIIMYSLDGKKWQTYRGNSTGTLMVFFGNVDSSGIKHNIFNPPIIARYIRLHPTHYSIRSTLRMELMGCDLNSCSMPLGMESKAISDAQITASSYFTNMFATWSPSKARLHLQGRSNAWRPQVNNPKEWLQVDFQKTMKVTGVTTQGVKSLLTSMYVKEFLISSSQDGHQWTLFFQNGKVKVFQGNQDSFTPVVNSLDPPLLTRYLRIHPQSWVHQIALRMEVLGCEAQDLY
# Tests used:
# factor VIIIa, P00451 = molecular target: T1, factor VIIIa, P00451
protein,measurement,setting,value
IXahelixVII (protein) chain 1: YNSGKLEEFVQGNLERECMEEKCSFEEAREVFENTERTTEFWKQYVDGDQCESNPCLNGGSCKDDINSYECWCPFGFEGKNCELDVTCNIKNGRCEQFCKNSADNKVVCSCTEGYRLAENQKSCEPAVPFPCGRVSVSQTSKLTR chain 2: VVGGEDAKPGQFPWQVVLNGKVDAFCGGSIVNEKWIVTAAHCVETGVKITVVAGEHNIEETEHTEQKRNVIRIIPHHNYNAAINKYNHDIALLELDEPLVLNSYVTPICIADKEYTNIFLKFGSGYVSGWGRVFHKGRSALVLQYLRVPRLMTQDCLQSTKFTIYNNMFCAGFHEGGRDSCQGDSGGPHVTEVEGTSFLTGIISWGEECAMKGKYGIYTKVSRYVNWIKEKTKLT,"rate of factor Xa generation, Ca2+ and phospholipid, no VIIIa (20 nM IXa, 100 nM X)","factor X, P00742",The rate of factor Xa generation in each case was 0.1 nM/min
same,"X-activation rate, PL-minus system (14 nM VIIIa, 400 nM X)","factor VIIIa, P00451",NM
same,"X-activation rate, PL-plus system (70 pM VIIIa, 0.5 nM IXa, 15 nM X)","factor VIIIa, P00451",NM
same,"rate of factor X activation with phospholipid, factor VIIIa increased from 70 pM to 14 nM","factor VIIIa, P00451",for IXahelixVII it was still not measurable
